These results are taken from the supplement of paper PMC5998384.

Series [1] relates to HeLa Kyoto. Nature of the series: solubility in G1/S (NP-40 vs SDS abundance) (log2 ratio); higher = more soluble. The note with it: cell cycle stage: G1/S.
The test system of series [2] is HeLa Kyoto. Nature of the series: solubility change mitosis vs G1/S (difference of NP-40 vs SDS log2 ratios) (log2 ratio difference); higher = more soluble in mitosis.
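Wherever solubility change mitosis vs G1/S (difference of NP-40 vs SDS log2 ratios) is given: synchronized HeLa Kyoto cells (double thymidine block for G1/S, nocodazole release for mitosis), protein amounts in NP-40 versus SDS lysates quantified by mass spectrometry, three biological replicates.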
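Wherever solubility in G1/S (NP-40 vs SDS abundance) is given: HeLa Kyoto cells arrested at G1/S by double thymidine block, proteins quantified by TMT10plex mass spectrometry in mild NP-40 versus SDS extracts, three biological replicates.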

Take “MFSALKKLVGSDQAPGRDKNIPAGLQSMNQALQRRFAKGVQYNMKIVIRGDRNTGKTALWHRLQGRPFVEEYIPTQEIQVTSIHWSYKTTDDIVKVEVWDVVDKGKCKKRGDGLKMENDPQEAESEMALDAEFLDVYKNCNGVVMMFDITKQWTFNYILRELPKVPTHVPVCVLGNYRDMGEHRVILPDDVRDFIDNLDRPPGSSYFRYAESSMKNSFGLKYLHKFFNIPFLQLQRETLLRQLETNQLDMDATLEELSVQQETEDQNYGIFLEMMEARSRGHASPLAANGQSPSPGSQSPVVPAGAVSTGSSSPGTPQPAPQLPLNAAPPSSVPPVPPSEALPPPACPSAPAPRRSIISRLFGTSPATEAAPPPPEPVPAAEGPATVQSVEDFVPDDRLDRSFLEDTTPARDEKKVGAKAAQQDSDSDGEALGGNPMVAGFQDDVDLEDQPRGSPPLPAGPVPSQDITLSSEEEAEVAAPTKGPAPAPQQCSEPETKWSSIPASKPRRGTAPTRTAAPPWPGGVSVRTGPEKRSSTRPPAEMEPGKGEQASSSESDPEGPIAAQMLSFVMDDPDFESEGSDTQRRADDFPVRDDPSDVTDEDEGPAEPPPPPKLPLPAFRLKNDSDLFGLGLEEAGPKESSEEGKEGKTPSKEKKKKKKKGKEEEEKAAKKKSKHKKSKDKEEGKEERRRRQQRPPRSRERTAADELEAFLGGGAPGGRHPGGGDYEEL [RABL6]”: the “solubility in G1/S (log2)” value with HeLa Kyoto [1] came out at 0.183. In the series with HeLa Kyoto [2], the “solubility change mitosis (log2)” value is -0.0863.
Regarding “MFSLKPPKPTFRSYLLPPPQTDDKINSEPKIKKLEPVLLPGEIVVNEVNFVRKCIATDTSQYDLWGKLICSNFKISFITDDPMPLQKFHYRNLLLGEHDVPLTCIEQIVTVNDHKRKQKVLGPNQKLKFNPTELIIYCKDFRIVRFRFDESGPESAKKVCLAIAHYSQPTDLQLLFAFEYVGKKYHNSANKINGIPSGDGGGGGGGGNGAGGGSSQKTPLFETYSDWDREIKRTGASGWRVCSINEGYMISTCLPEYIVVPSSLADQDLKIFSHSFVGRRMPLWCWSHSNGSALVRMALIKDVLQQRKIDQRICNAITKSHPQRSDVYKSDLDKTLPNIQEVQAAFVKLKQLCVNEPFEETEEKWLSSLENTRWLEYVRAFLKHSAELVYMLESKHLSVVLQEEEGRDLSCCVASLVQVMLDPYFRTITGFQSLIQKEWVMAGYQFLDRCNHLKRSEKESPLFLLFLDATWQLLEQYPAAFEFSETYLAVLYDSTRISLFGTFLFNSPHQRVKQSTEFAISKNIQLGDEKGLKFPSVWDWSLQFTAKDRTLFHNPFYIGKSTPCIQNGSVKSFKRTKKSYSSTLRGMPSALKNGIISDQELLPRRNSLILKPKPDPAQQTDSQNSDTEQYFREWFSKPANLHGVILPRVSGTHIKLWKLCYFRWVPEAQISLGGSITAFHKLSLLADEVDVLSRMLRQQRSGPLEACYGELGQSRMYFNASGPHHTDTSGTPEFLSSSFPFSPVGNLCRRSILGTPLSKFLSGAKIWLSTETLANED [MTMR10]”, the “solubility in G1/S (log2)” value in the series on HeLa Kyoto [1] was -0.147. Moreover, the “solubility change mitosis (log2)” value with HeLa Kyoto [2] came to 0.00531.
The matching figures for “MFSRNHRSRVTVARGSALEMEFKRGRFRLSLFSDLPEDTELQRKLDHEIRMREGACKLLAACSQREQALEATKSLLVCNSRILSYMGELQRRKEAQVLGKTSRRPSDSGPPAERSPCRGRVCISDLRIPLMWKDTEYFKNKGDLHRWAVFLLLQLGEHIQDTEMILVDRTLTDISFQSNVLFAEAGPDFELRLELYGACVEEEGALTGGPKRLATKLSSSLGRSSGRRVRASLDSAGGSGSSPILLPTPVVGGPRYHLLAHTTLTLAAVQDGFRTHDLTLASHEENPAWLPLYGSVCCRLAAQPLCMTQPTASGTLRVQQAGEMQNWAQVHGVLKGTNLFCYRQPEDADTGEEPLLTIAVNKETRVRAGELDQALGRPFTLSISNQYGDDEVTHTLQTESREALQSWMEALWQLFFDMSQWKQCCDEIMKIETPAPRKPPQALAKQGSLYHEMAIEPLDDIAAVTDILTQREGARLETPPPWLAMFTDQPALPNPCSPASVAPAPDWTHPLPWGRPRTFSLDAVPPDHSPRARSVAPLPPQRSPRTRGLCSKGQPRTWLQSPV [RTKN]”: 0.208 and -0.0634.
The matching figures for “MGAAGSSALARFVLLAQSRPGWLGVAALGLTAVALGAVAWRRAWPTRRRRLLQQVGTVAQLWIYPVKSCKGVPVSEAECTAMGLRSGNLRDRFWLVINQEGNMVTARQEPRLVLISLTCDGDTLTLSAAYTKDLLLPIKTPTTNAVHKCRVHGLEIEGRDCGEATAQWITSFLKSQPYRLVHFEPHMRPRRPHQIADLFRPKDQIAYSDTSPFLILSEASLADLNSRLEKKVKATNFRPNIVISGCDVYAEDSWDELLIGDVELKRVMACSRCILTTVDPDTGVMSRKEPLETLKSYRQCDPSERKLYGKSPLFGQYFVLENPGTIKVGDPVYLLGQ [MARC1]”: 0.00278 and -0.0926.
The corresponding values for “MGALARALLLPLLAQWLLRAAPELAPAPFTLPLRVAAATNRVVAPTPGPGTPAERHADGLALALEPALASPAGAANFLAMVDNLQGDSGRGYYLEMLIGTPPQKLQILVDTGSSNFAVAGTPHSYIDTYFDTERSSTYRSKGFDVTVKYTQGSWTGFVGEDLVTIPKGFNTSFLVNIATIFESENFFLPGIKWNGILGLAYATLAKPSSSLETFFDSLVTQANIPNVFSMQMCGAGLPVAGSGTNGGSLVLGGIEPSLYKGDIWYTPIKEEWYYQIEILKLEIGGQSLNLDCREYNADKAIVDSGTTLLRLPQKVFDAVVEAVARASLIPEFSDGFWTGSQLACWTNSETPWSYFPKISIYLRDENSSRSFRITILPQLYIQPMMGAGLNYECYRFGISPSTNALVIGATVMEGFYVIFDRAQKRVGFAASPCAEIAGAAVSEISGPFSTEDVASNCVPAQSLSEPILWIVSYALMSVCGAILLVLIVLLLLPFRCQRRPRDPEVVNDESSLVRHRWK [BACE2]” are 0.0932 and 0.0177.
Consider “MGAQDRPQCHFDIEINREPVGRIMFQLFSDICPKTCKNFLCLCSGEKGLGKTTGKKLCYKGSTFHRVVKNFMIQGGDFSEGNGKGGESIYGGYFKDENFILKHDRAFLLSMANRGKHTNGSQFFITTKPAPHLDGVHVVFGLVISGFEVIEQIENLKTDAASRPYADVRVIDCGVLATKSIKDVFEKKRKKPTHSEGSDSSSNSSSSSESSSESELEHERSRRRKHKRRPKVKRSKKRRKEASSSEEPRNKHAMNPKGHSERSDTNEKRSVDSSAKREKPVVRPEEIPPVPENRFLLRRDMPVVTAEPEPKIPDVAPIVSDQKPSVSKSGRKIKGRGTIRYHTPPRSRSCSESDDDDSSETPPHWKEEMQRLRAYRPPSGEKWSKGDKLSDPCSSRWDERSLSQRSRSWSYNGYYSDLSTARHSGHHKKRRKEKKVKHKKKGKKQKHCRRHKQTKKRRILIPSDIESSKSSTRRMKSSCDRERSSRSSSLSSHHSSKRDWSKSDKDVQSSLTHSSRDSYRSKSHSQSYSRGSSRSRTASKSSSHSRSRSKSRSSSKSGHRKRASKSPRKTASQLSENKPVKTEPLRATMAQNENVVVQPVVAENIPVIPLSDSPPPSRWKPGQKPWKPSYERIQEMKAKTTHLLPIQSTYSLANIKETGSSSSYHKREKNSESDQSTYSKYSDRSSESSPRSRSRSSRSRSYSRSYTRSRSLASSHSRSRSPSSRSHSRNKYSDHSQCSRSSSYTSISSDDGRRAKRRLRSSGKKNSVSHKKHSSSSEKTLHSKYVKGRDRSSCVRKYSESRSSLDYSSDSEQSSVQATQSAQEKEKQGQMERTHNKQEKNRGEEKSKSERECPHSKKRTLKENLSDHLRNGSKPKRKNYAGSKWDSESNSERDVTKNSKNDSHPSSDKEEGEATSDSESEVSEIHIKVKPTTKSSTNTSLPDDNGAWKSSKQRTSTSDSEGSCSNSENNRGKPQKHKHGSKENLKREHTKKVKEKLKGKKDKKHKAPKRKQAFHWQPPLEFGEEEEEEIDDKQVTQESKEKKVSENNETIKDNILKTEKSSEEDLSGKHDTVTVSSDLDQFTKDDSKLSISPTALNTEENVACLQNIQHVEESVPNGVEDVLQTDDNMEICTPDRSSPAKVEETSPLGNARLDTPDINIVLKQDMATEHPQAEVVKQESSMSESKVLGEVGKQDSSSASLASAGESTGKKEVAEKSQINLIDKKWKPLQGVGNLAAPNAATSSAVEVKVLTTVPEMKPQGLRIEIKSKNKVRPGSLFDEVRKTARLNRRPRNQESSSDEQTPSRDDDSQSRSPSRSRSKSETKSRHRTRSVSYSHSRSRSRSSTSSYRSRSYSRSRSRGWYSRGRTRSRSSSYRSYKSHRTSSRSRSRSSSYDPHSRSRSYTYDSYYSRSRSRSRSQRSDSYHRGRSYNRRSRSCRSYGSDSESDRSYSHHRSPSESSRYS [NKTR]”, for which the “solubility in G1/S (log2)” value in the series with HeLa Kyoto [1] is -1.34. In the series on HeLa Kyoto [2], the “solubility change mitosis (log2)” value was 0.283.
